# From patent US20260209318A1 (NATIONAL UNIVERSITY OF SINGAPORE, published 2026)
# Target: SARS-CoV-2 spike protein RBD (SARS-CoV-2, UniProt P0DTC2 319-541)
# Assay: multiplex sVNT, RBD-coated beads, PE-hACE2 as competitor
binder,measurement,value
"SS6V11-E7 (antibody, V domains shown) VH: QVQLQESGPGLVKPSETLSLTCTVSGGFIGPHYWSWVRQPPGKGLEWIGYIYISGSTNYNPSLKSRLTISVDMSKSQFSLTLSSATAADTAVYYCARGGGYLETGPFEYWGQGTLVTVSS VL: DIVMTQSPLSLPVTPGEPASISCRSSQSLLQNNGYNYLAWYLQKPGQSPQLLIYLSSTRASGVPDRFSGSGSGTDFTLKISRVEAEDVGVYYCMQSLQIPGTFGQGTRLEIK",binding result,binds
